According to publication doi:10.1101/2020.10.28.359091 (bioRxiv, 2020):
Like-named read-outs stand apart in the source and are kept apart here. One block for each molecule: values may come before it. No end group written: not given here. *: point of attachment. FITC = O=C1OC2(c3ccc(O)cc3Oc3cc(O)ccc32)c2ccc(NC(=S)*)cc21

Assays:
[1] = biological target: RXR/RAR LBD heterodimer (mouse RXRα LBD with human RARα LBD) (human | mouse) (UniProt P10276); assay: fluorescence polarisation
[2] = biological target: RXR/RAR LBD heterodimer (mouse RXRα LBD with human RARα LBD) (human | mouse) (UniProt P10276); assay: fluorescence polarisation; remark: listed apart in the source
[3] = biological target: T1, RARα ligand-binding domain (RAR LBD) (human, UniProt P10276-1 176-421); assay: fluorescence polarisation
T1 sequence: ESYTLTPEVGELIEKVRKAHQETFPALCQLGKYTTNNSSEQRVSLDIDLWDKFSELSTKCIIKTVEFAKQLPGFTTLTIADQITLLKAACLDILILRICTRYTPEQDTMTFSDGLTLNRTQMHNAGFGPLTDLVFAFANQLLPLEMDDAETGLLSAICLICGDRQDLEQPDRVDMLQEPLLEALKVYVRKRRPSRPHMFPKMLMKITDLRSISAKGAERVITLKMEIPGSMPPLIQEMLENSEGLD

[4] = biological target: T1, RARα ligand-binding domain (RAR LBD); assay: crystal structure
[5] = biological target: T1, RARα ligand-binding domain (RAR LBD); assay: crystal structure; remark: listed apart in the source

Kd [1]: 1340 nM
fold decrease of Kd against the apo heterodimer [1]: 9 fold
Kd [2]: 200 nM
Molecule: TIF2 nuclear receptor interaction domain (TIF2_(NRID)), residues 624-773, wild type (domain or fragment)

binding result [3]: binds
B1: SRC1 NR2 peptide (RHKILHRLLQEGS), unlabelled (peptide)
peptide: RHKILHRLLQEGS

binding result [4]: binds
B2: SRC1 NR2-Ext peptide (RHKILHRLLQEGSPSDITTLSVEPDKK) (peptide)
peptide: RHKILHRLLQEGSPSDITTLSVEPDKK

binding result [3]: binds
B3: FITC-SRC1 NR2 peptide (FITC-LTERHKILHRLLQEGSP) (peptide)
peptide: {FITC}-LTERHKILHRLLQEGSP

binding result [3]: binds
B4: TIF2 NR2 peptide (KHKILHRLLQDSS), unlabelled (peptide)
peptide: KHKILHRLLQDSS

binding result [5]: binds
B5: TIF2 NR2-Ext peptide (K686-K713), unlabelled (peptide)
peptide: KHKILHRLLQDSSSPVDLAKLTAEATGK
